Reference: patent publication US20230054860

Biological target: WDR26 (endogenous) (UniProt Q9H7D7)
UniProt Q9H7D7, sequence (Q9H7D7 whole entry): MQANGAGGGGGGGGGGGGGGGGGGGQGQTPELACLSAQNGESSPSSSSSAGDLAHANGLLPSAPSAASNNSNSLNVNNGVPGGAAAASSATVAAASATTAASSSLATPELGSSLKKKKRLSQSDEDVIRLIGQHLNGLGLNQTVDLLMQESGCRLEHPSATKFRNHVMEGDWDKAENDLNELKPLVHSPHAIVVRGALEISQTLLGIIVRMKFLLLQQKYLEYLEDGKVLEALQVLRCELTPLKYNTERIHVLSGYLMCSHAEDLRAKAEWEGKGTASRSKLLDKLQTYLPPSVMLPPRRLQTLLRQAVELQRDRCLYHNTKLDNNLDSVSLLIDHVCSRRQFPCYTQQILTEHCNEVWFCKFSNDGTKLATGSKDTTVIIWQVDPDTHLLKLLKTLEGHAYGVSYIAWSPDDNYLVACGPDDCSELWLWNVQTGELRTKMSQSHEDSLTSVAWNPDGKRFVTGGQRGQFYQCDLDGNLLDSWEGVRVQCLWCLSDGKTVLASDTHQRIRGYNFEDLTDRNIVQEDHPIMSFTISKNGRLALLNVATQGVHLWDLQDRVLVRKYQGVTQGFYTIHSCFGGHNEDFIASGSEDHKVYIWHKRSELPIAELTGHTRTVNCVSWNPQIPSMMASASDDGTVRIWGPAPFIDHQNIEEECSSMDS

AKT (endogenous)
AKT phosphorylation levels (pAKT S473, western blot): ultimately leading to a decrease in AKT phosphorylation levels
